The values below come from publication PMC6779417.

The target of this assay is 70S ribosome (Escherichia coli MRE600), translating on an mRNA hairpin (Escherichia coli MRE600). Put plainly: single-molecule fluorescence with optical tweezers.

Consider “Cy3-labeled EF-G (S73C EF-G labeled with Cy3-monomaleimide) (from UniProt P0A6M8 1-704) (enzyme)”, for which the EF-G residence time on the ribosome before hairpin unwinding (tau unwinding) worked out at 0.25 s.
